Legend:
Assay in all cases: holdup assay
Parameters in all cases: key: below the threshold = too weak to quantify, mostly under pKd 3.1 to 4
DLG4_3, P78352 = molecular target: DLG4_3, P78352
SCRIB_1, Q14160 = molecular target: SCRIB_1, Q14160
MAGI2_5, Q86UL8 = molecular target: MAGI2_5, Q86UL8
GRID2IP_1, A4D2P6 = molecular target: GRID2IP_1, A4D2P6
HTRA2, O43464 = molecular target: HTRA2, O43464
SNTG2, Q9NY99 = molecular target: T1, SNTG2, Q9NY99
T1 sequence (Q9NY99 68-166, limits assumed, looked up): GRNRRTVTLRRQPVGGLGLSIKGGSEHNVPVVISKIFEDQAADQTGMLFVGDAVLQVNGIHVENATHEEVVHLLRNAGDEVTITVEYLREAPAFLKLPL

CARD11, Q9BXL7 = molecular target: T2, CARD11, Q9BXL7
T2 sequence (Q9BXL7 662-765, limits assumed, looked up): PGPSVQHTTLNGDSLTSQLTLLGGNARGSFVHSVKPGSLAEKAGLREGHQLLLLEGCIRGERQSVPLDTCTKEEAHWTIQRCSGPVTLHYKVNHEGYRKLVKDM

SYNJ2BP, P57105 = molecular target: T3, SYNJ2BP, P57105
T3 sequence (P57105 8-110, limits assumed, looked up): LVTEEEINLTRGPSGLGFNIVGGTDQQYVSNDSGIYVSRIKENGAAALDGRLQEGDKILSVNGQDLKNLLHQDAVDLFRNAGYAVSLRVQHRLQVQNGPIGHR

AHNAK1, Q09666 = molecular target: AHNAK1, Q09666
Chain of AHNAK1, Q09666 (Q09666 4-100): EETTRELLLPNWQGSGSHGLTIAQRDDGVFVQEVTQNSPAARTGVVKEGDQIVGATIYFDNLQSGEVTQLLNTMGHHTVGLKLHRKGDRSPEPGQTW

FRMPD2_2, Q68DX3 = molecular target: FRMPD2_2, Q68DX3
Chain of FRMPD2_2, Q68DX3 (Q68DX3 944-1038): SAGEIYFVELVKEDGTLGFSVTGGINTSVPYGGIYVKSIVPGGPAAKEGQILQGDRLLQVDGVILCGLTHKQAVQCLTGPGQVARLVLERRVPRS

NHERF2_2, Q15599 = molecular target: NHERF2_2, Q15599
Chain of NHERF2_2, Q15599 (Q15599 142-238): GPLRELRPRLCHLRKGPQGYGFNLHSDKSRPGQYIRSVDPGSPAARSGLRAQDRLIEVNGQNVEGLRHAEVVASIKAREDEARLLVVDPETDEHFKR

DLG2_2, Q15700 = molecular target: DLG2_2, Q15700
Chain of DLG2_2, Q15700 (Q15700 189-283): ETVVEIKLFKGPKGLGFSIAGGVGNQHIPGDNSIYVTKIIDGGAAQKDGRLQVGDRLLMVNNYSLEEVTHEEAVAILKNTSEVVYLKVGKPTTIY

SNTA1, Q13424 = molecular target: T4, SNTA1, Q13424
T4 sequence (Q13424 82-180, limits assumed, looked up): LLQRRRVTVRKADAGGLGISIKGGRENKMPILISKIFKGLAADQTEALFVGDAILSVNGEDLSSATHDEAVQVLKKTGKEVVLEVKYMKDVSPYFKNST

MAGI2_2, Q86UL8 = molecular target: MAGI2_2, Q86UL8
Chain of MAGI2_2, Q86UL8 (Q86UL8 410-522): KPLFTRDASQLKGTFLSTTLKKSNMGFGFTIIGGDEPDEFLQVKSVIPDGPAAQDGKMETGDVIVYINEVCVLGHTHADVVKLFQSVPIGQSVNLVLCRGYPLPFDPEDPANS

GRIP1_7, Q9Y3R0 = molecular target: T5, GRIP1_7, Q9Y3R0
T5 sequence (Q9Y3R0 999-1096, limits assumed, looked up): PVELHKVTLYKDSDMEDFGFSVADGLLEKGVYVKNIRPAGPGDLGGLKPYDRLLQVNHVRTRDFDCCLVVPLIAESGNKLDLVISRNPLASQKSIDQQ

GRIP2_7, Q9C0E4 = molecular target: GRIP2_7, Q9C0E4
Chain of GRIP2_7, Q9C0E4 (Q9C0E4 934-1023): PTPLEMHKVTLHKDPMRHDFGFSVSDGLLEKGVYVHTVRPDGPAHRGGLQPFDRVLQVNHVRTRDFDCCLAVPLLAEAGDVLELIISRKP

APBA3_1, O96018 = molecular target: T6, APBA3_1, O96018
T6 sequence (O96018 389-490, limits assumed, looked up): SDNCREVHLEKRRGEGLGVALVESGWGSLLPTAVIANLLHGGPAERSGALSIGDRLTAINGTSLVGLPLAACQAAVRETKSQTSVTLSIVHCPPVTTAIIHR

DLG1_3, Q12959 = molecular target: DLG1_3, Q12959
Chain of DLG1_3, Q12959 (Q12959 457-571): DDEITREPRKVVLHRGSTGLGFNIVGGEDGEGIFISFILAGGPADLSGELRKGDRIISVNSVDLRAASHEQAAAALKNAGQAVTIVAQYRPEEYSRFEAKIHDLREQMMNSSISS

GORASP2, Q9H8Y8 = molecular target: GORASP2, Q9H8Y8
GRIP2_5, Q9C0E4 = molecular target: GRIP2_5, Q9C0E4
Chain of GRIP2_5, Q9C0E4 (Q9C0E4 544-642): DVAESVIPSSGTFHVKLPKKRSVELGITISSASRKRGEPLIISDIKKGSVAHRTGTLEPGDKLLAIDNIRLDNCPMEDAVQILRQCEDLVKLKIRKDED

TIAM2, Q8IVF5 = molecular target: T7, TIAM2, Q8IVF5
T7 sequence (Q8IVF5 885-986, limits assumed, looked up): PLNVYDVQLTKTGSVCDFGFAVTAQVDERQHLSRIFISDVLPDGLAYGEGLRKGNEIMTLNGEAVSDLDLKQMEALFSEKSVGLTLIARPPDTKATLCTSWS

LDB3, O75112 = molecular target: LDB3, O75112
Chain of LDB3, O75112 (O75112 1-94): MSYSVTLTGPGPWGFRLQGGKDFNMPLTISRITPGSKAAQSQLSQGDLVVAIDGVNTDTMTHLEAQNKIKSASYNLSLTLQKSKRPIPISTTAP

GORASP1, Q9BQQ3 = molecular target: GORASP1, Q9BQQ3
Chain of GORASP1, Q9BQQ3 (Q9BQQ3 1-208): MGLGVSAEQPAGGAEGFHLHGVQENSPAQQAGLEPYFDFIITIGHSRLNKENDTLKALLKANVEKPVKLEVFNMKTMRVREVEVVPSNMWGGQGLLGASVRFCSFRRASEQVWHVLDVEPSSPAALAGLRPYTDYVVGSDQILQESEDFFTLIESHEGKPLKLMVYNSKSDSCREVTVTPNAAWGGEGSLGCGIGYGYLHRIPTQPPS

MPDZ_12, O75970 = molecular target: T8, MPDZ_12, O75970
T8 sequence (O75970 1857-1958, limits assumed, looked up): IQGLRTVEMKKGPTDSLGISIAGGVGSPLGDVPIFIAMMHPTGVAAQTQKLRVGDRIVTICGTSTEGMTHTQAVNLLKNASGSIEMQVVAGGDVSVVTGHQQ

MAST1, Q9Y2H9 = molecular target: MAST1, Q9Y2H9
Chain of MAST1, Q9Y2H9 (Q9Y2H9 962-1065): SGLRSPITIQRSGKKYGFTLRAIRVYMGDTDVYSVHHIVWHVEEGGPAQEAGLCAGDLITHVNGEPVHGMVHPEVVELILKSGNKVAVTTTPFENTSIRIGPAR

LIN7C, Q9NUP9 = molecular target: T9, LIN7C, Q9NUP9
T9 sequence (Q9NUP9 88-185, limits assumed, looked up): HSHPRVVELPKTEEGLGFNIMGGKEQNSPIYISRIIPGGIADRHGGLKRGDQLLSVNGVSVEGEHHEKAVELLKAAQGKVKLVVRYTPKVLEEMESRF

HTRA3, P83110 = molecular target: T10, HTRA3, P83110
T10 sequence (P83110 354-453, limits assumed, looked up): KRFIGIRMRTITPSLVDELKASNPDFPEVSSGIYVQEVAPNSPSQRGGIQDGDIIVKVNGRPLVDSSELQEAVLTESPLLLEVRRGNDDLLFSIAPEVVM

GRID2IP_2, A4D2P6 = molecular target: GRID2IP_2, A4D2P6
Chain of GRID2IP_2, A4D2P6 (A4D2P6 272-370): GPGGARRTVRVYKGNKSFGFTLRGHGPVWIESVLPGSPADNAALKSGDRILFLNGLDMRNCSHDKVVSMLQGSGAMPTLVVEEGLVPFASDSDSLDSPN

[1] = plain residues with an end cap or a label only (N-terminal biotin on a linker: ahx)
[2] = plain residues with an end cap or a label only (N-terminal biotin on a linker: ttds)

Chain of SCRIB_1, Q14160 (Q14160 718-814): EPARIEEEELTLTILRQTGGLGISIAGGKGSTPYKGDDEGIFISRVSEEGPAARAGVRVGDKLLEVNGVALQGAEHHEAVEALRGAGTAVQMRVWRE
Chain of HTRA2, O43464 (O43464 355-458): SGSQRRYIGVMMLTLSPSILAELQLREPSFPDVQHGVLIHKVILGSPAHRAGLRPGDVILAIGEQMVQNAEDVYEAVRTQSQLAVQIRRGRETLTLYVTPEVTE
Chain of GRID2IP_1, A4D2P6 (A4D2P6 1-87): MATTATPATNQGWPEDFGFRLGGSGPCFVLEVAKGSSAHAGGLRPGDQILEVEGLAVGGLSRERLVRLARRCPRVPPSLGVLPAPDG
Chain of MAGI2_5, Q86UL8 (Q86UL8 915-1017): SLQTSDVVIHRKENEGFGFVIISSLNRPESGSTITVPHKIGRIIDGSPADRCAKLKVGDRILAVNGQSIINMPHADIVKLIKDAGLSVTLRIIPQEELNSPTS
Chain of DLG4_3, P78352 (P78352 306-403): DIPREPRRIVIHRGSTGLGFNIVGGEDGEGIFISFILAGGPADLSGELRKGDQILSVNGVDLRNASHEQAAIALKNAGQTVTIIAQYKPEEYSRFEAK

NRKREIFSNF [NHERF2, Q15599]
pKd (DLG4_3, P78352; [1]): below the threshold
pKd (SCRIB_1, Q14160; [1]): below the threshold
pKd (MAGI2_5, Q86UL8; [1]): below the threshold
pKd (GRID2IP_1, A4D2P6; [1]): below the threshold
pKd (HTRA2, O43464; [1]): below the threshold
pKd (SNTG2, Q9NY99; [1]): below the threshold
pKd (CARD11, Q9BXL7; [1]): below the threshold
pKd (SYNJ2BP, P57105; [1]): below the threshold
pKd (AHNAK1, Q09666; [1]): below the threshold
pKd (FRMPD2_2, Q68DX3; [1]): below the threshold
pKd (NHERF2_2, Q15599; [1]): below the threshold
pKd (DLG2_2, Q15700; [1]): below the threshold
pKd (SNTA1, Q13424; [1]): below the threshold
pKd (MAGI2_2, Q86UL8; [1]): below the threshold
pKd (GRIP1_7, Q9Y3R0; [1]): below the threshold
pKd (GRIP2_7, Q9C0E4; [1]): below the threshold
pKd (APBA3_1, O96018; [1]): below the threshold
pKd (DLG1_3, Q12959; [1]): below the threshold
pKd (GORASP2, Q9H8Y8; [1]): below the threshold
pKd (GRIP2_5, Q9C0E4; [1]): below the threshold
pKd (TIAM2, Q8IVF5; [1]): below the threshold
pKd (LDB3, O75112; [1]): below the threshold
pKd (GORASP1, Q9BQQ3; [1]): below the threshold
pKd (MPDZ_12, O75970; [1]): below the threshold
pKd (MAST1, Q9Y2H9; [1]): below the threshold
pKd (LIN7C, Q9NUP9; [1]): below the threshold
pKd (HTRA3, P83110; [1]): below the threshold
pKd (GRID2IP_2, A4D2P6; [1]): below the threshold

RRRKRKRTYL [HPV49-L2, P36762]
pKd (DLG4_3, P78352; [1]): 4.26
pKd (SCRIB_1, Q14160; [1]): 3.67
pKd (MAGI2_5, Q86UL8; [1]): below the threshold
pKd (GRID2IP_1, A4D2P6; [1]): below the threshold
pKd (HTRA2, O43464; [1]): 3.49
pKd (SNTG2, Q9NY99; [1]): 3.57
pKd (CARD11, Q9BXL7; [1]): below the threshold
pKd (SYNJ2BP, P57105; [1]): below the threshold
pKd (AHNAK1, Q09666; [1]): 3.56
pKd (FRMPD2_2, Q68DX3; [1]): below the threshold
pKd (NHERF2_2, Q15599; [1]): 3.49
pKd (DLG2_2, Q15700; [1]): 4.58
pKd (SNTA1, Q13424; [1]): 3.69
pKd (MAGI2_2, Q86UL8; [1]): 5.33
pKd (GRIP1_7, Q9Y3R0; [1]): 3.54
pKd (GRIP2_7, Q9C0E4; [1]): 3.68
pKd (APBA3_1, O96018; [1]): below the threshold
pKd (DLG1_3, Q12959; [1]): 3.65
pKd (GORASP2, Q9H8Y8; [1]): 4.81
pKd (GRIP2_5, Q9C0E4; [1]): below the threshold
pKd (TIAM2, Q8IVF5; [1]): below the threshold
pKd (LDB3, O75112; [1]): below the threshold
pKd (GORASP1, Q9BQQ3; [1]): 4.65
pKd (MPDZ_12, O75970; [1]): below the threshold
pKd (MAST1, Q9Y2H9; [1]): 4.21
pKd (LIN7C, Q9NUP9; [1]): below the threshold
pKd (HTRA3, P83110; [1]): below the threshold
pKd (GRID2IP_2, A4D2P6; [1]): 5.11

EVVHTPETSV [SLC16A3, O15427]
pKd (DLG4_3, P78352; [2]): 3.94
pKd (SCRIB_1, Q14160; [2]): 5.08
pKd (MAGI2_5, Q86UL8; [2]): below the threshold
pKd (GRID2IP_1, A4D2P6; [2]): below the threshold
pKd (HTRA2, O43464; [2]): below the threshold
pKd (SNTG2, Q9NY99; [2]): 4.55
pKd (CARD11, Q9BXL7; [2]): below the threshold
pKd (SYNJ2BP, P57105; [2]): 4.78
pKd (AHNAK1, Q09666; [2]): below the threshold
pKd (FRMPD2_2, Q68DX3; [2]): 4.5
pKd (NHERF2_2, Q15599; [2]): below the threshold
pKd (DLG2_2, Q15700; [2]): 3.98
pKd (SNTA1, Q13424; [2]): 4.69
pKd (MAGI2_2, Q86UL8; [2]): below the threshold
pKd (GRIP1_7, Q9Y3R0; [2]): 3.79
pKd (GRIP2_7, Q9C0E4; [2]): below the threshold
pKd (APBA3_1, O96018; [2]): below the threshold
pKd (DLG1_3, Q12959; [2]): 4.1
pKd (GORASP2, Q9H8Y8; [2]): below the threshold
pKd (GRIP2_5, Q9C0E4; [2]): below the threshold
pKd (TIAM2, Q8IVF5; [2]): below the threshold
pKd (LDB3, O75112; [2]): below the threshold
pKd (GORASP1, Q9BQQ3; [2]): below the threshold
pKd (MPDZ_12, O75970; [2]): below the threshold
pKd (MAST1, Q9Y2H9; [2]): 4.11
pKd (LIN7C, Q9NUP9; [2]): 4.07
pKd (HTRA3, P83110; [2]): below the threshold
pKd (GRID2IP_2, A4D2P6; [2]): below the threshold

— article PMC9482650, “Quantitative fragmentomics allow affinity mapping of interactomes” (Nature Communications, 2022)
